Experimental data published in US20230122079A1.

B1: v32909 digested with Matriptase (Fc fusion)
chain 1: SANAGGGGSGGGGSQVQLVESGGGVVQPGRSLRLSCAASGFTFSSYGMHWVRQAPGKGLEWVAFIRYDGSNKYYADSVKGRFTISRDNSKNTLYLQMNSLRAEDTAVYYCKTHGSHDNWGQGTMVTVSSGGGGSMSGR
chain 2: SANAGGGGSGGGGSQSVLTQPPSVSGAPGQRVTISCSGSRSNIGSNTVKWYQQLPGTAPKLLIYYNDQRPSGVPDRFSGSKSGTSASLAITGLQAEDEADYYCQSYDRYTHPALLFGTGTKVTVL
B2: v32910 digested with Matriptase (Fc fusion)
chain: SANAGGGGSGGGGSQVQLVESGGGVVQPGRSLRLSCAASGFTFSSYGMHWVRQAPGKGLEWVAFIRYDGSNKYYADSVKGRFTISRDNSKNTLYLQMNSLRAEDTAVYYCKTHGSHDNWGQGTMVTVSSGGGGSGGGSGGGSGGGGSGGGGSQSVLTQPPSVSGAPGQRVTISCSGSRSNIGSNTVKWYQQLPGTAPKLLIYYNDQRPSGVPDRFSGSKSGTSASLAITGLQAEDEADYYCQSYDRYTHPALLFGTGTKVTVL

Key:
[1] = molecular target: recombinant IL12 (Peprotech) (human) (UniProt P29460); experiment: SPR; SPR binding to immobilized IL12; kinetics post-digest with Matriptase
recombinant IL12 (Peprotech) (human), sequence (P29460 23-328 limits assumed, chain 1 of 2): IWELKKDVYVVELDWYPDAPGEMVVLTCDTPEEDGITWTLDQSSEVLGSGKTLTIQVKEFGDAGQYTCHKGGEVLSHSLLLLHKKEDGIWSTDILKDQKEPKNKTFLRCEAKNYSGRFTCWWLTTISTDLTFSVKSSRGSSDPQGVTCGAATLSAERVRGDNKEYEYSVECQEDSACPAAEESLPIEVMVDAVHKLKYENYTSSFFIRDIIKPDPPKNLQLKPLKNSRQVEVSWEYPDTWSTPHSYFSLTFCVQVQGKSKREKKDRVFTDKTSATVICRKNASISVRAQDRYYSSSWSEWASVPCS
recombinant IL12 (Peprotech) (human), sequence (chain, as listed by the source limits assumed, chain 2 of 2): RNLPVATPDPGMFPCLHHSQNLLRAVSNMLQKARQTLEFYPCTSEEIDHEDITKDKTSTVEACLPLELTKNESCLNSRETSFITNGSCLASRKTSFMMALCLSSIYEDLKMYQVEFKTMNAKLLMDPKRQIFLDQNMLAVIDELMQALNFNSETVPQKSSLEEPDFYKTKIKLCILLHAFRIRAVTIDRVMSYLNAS

[2] = molecular target: recombinant IL12 (Peprotech) (human) (UniProt P29460); experiment: SPR; SPR binding to immobilized IL12; kinetics post-digest with Matriptase; ka near instrument detection limit

Binder | Kd [1] [pM] | koff [1] [s⁻¹] | kon [2] [M⁻¹ s⁻¹]
B1 | 1.47 | 6.48e-05 | 4.19e+07
B2 | 5.37 | 4.68e-05 | 8.65e+06
